Laboratory results from article PMC9896932, “Apo and ligand-bound high resolution Cryo-EM structures of the human Kv3.1 channel reveal a novel binding site for positive modulators” (PNAS Nexus, 2022).

Target: the molecule itself
Assay: cryo-EM structure; purified flWT-Kv3.1a in LMNG 0.01%, Tris 20 mM pH 7.5, KCl 200 mM, DTT 1 mM; 2 mg/ml on the grid; apo (2.65 Å) and with 500 µM Lu AG00563 (3.0 Å), same organisation of subunits in both

B1: wild type full length human Kv3.1 isoform a tetramer (natural protein, UniProt P48547 1-511, looked up)
chain: MGQGDESERIVINVGGTRHQTYRSTLRTLPGTRLAWLAEPDAHSHFDYDPRADEFFFDRHPGVFAHILNYYRTGKLHCPADVCGPLYEEELAFWGIDETDVEPCCWMTYRQHRDAEEALDSFGGAPLDNSADDADADGPGDSGDGEDELEMTKRLALSDSPDGRPGGFWRRWQPRIWALFEDPYSSRYARYVAFASLFFILVSITTFCLETHERFNPIVNKTEIENVRNGTQVRYYREAETEAFLTYIEGVCVVWFTFEFLMRVIFCPNKVEFIKNSLNIIDFVAILPFYLEVGLSGLSSKAAKDVLGFLRVVRFVRILRIFKLTRHFVGLRVLGHTLRASTNEFLLLIIFLALGVLIFATMIYYAERIGAQPNDPSASEHTHFKNIPIGFWWAVVTMTTLGYGDMYPQTWSGMLVGALCALAGVLTIAMPVPVIVNNFGMYYSLAMAKQKLPKKKKKHIPRPPQLGSPNYCKSVVNSPHHSTQSDTCPLAQEEILEINRAGRKPLRGMSI
notes: Kv3.1 (KCNC1), human, canonical isoform a, wild type, full length; C-terminal prescission 3C site followed by GFP, removed by HRV 3C protease on elution from the resin; The GFP tag was still on the protein when it was captured on the anti-GFP resin (co-purification statement); In the model residues 120-191, 218-239, 268-280, 295-311 and 372-376 were not built; also called flWT-Kv3.1a; Kv3.1a; …
Question: How did the “stoichiometry N” value turn out when B1 was run?
Answer: The value was 4.
